Assay results reported in the supplement of paper PMC9112550, “Optimization of the antimicrobial peptide Bac7 by deep mutational scanning” (BMC Biology, 2022).

Tested on: Escherichia coli TOP10
Experiment: shrunken log2 fold change of peptide-encoding DNA abundance (4.5 h post-induction vs induction); higher = less antimicrobial activity (less host growth inhibition)
Conditions: time post-induction: 4.5 h; library: site-saturation at positions 5, 18, 19, 20
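Note: peptides expressed intracellularly from a pBAD plasmid library in pooled LB shake-flask culture, induced with 0.3% L-arabinose, DNA abundance read by NGS, three biological replicates, DESeq2 with apeglm shrinkage.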

Sequence	shrunken log2 fold change
RRIRIRPPRLPRPRPRPLIPPRP	-0.692
RRIRPRPPRLPRPRPRPNRRPRP	-0.0942
RRIRFRPPRLPRPRPRPLKGPRP	-0.128
RRIRIRPPRLPRPRPRPWISPRP	-0.0286
RRIRPRPPRLPRPRPRPEVRPRP	-0.0106
RRIRNRPPRLPRPRPRPGIKPRP	-0.192
RRIRRRPPRLPRPRPRPHCSPRP	-0.0453
RRIRNRPPRLPRPRPRPNTPPRP	-0.543
RRIRARPPRLPRPRPRPVIWPRP	0.322
RRIRQRPPRLPRPRPRPDTYPRP	-0.154
RRIRNRPPRLPRPRPRPPFWPRP	0.196
RRIRGRPPRLPRPRPRPMITPRP	0.24
RRIRGRPPRLPRPRPRPVSEPRP	0.797
RRIRWRPPRLPRPRPRPLQDPRP	-0.0523
RRIRCRPPRLPRPRPRPAKRPRP	0.0702
RRIRIRPPRLPRPRPRPGNEPRP	-0.0358
RRIRPRPPRLPRPRPRPYAMPRP	-0.265
RRIRKRPPRLPRPRPRPFVHPRP	-0.254
RRIRGRPPRLPRPRPRPQWFPRP	0.282
RRIRARPPRLPRPRPRPWTKPRP	0.167
RRIRFRPPRLPRPRPRPGWNPRP	0.0411
RRIRNRPPRLPRPRPRPWHVPRP	0.0188
RRIRGRPPRLPRPRPRPHFWPRP	0.428
RRIRHRPPRLPRPRPRPNLGPRP	-0.00355
RRIRYRPPRLPRPRPRPPWVPRP	-0.209

Sequence	shrunken log2 fold change
RRIRYRPPRLPRPRPRPCMHPRP	-0.351
RRIRFRPPRLPRPRPRPMLYPRP	-0.567
RRIRIRPPRLPRPRPRPWIEPRP	-0.186
RRIRNRPPRLPRPRPRPEVTPRP	-0.0105
RRIRPRPPRLPRPRPRPVHPPRP	0.127
RRIRKRPPRLPRPRPRPNLVPRP	-0.0428
RRIRTRPPRLPRPRPRPNFKPRP	-0.131
RRIRFRPPRLPRPRPRPQAHPRP	-0.454
RRIRGRPPRLPRPRPRPYWSPRP	-0.251
RRIRKRPPRLPRPRPRPTYHPRP	-0.283
RRIRQRPPRLPRPRPRPYRNPRP	-0.0521
RRIRGRPPRLPRPRPRPGPGPRP	1.65
RRIRLRPPRLPRPRPRPALNPRP	-0.0159
RRIRERPPRLPRPRPRPSMKPRP	-0.607
RRIRKRPPRLPRPRPRPNDKPRP	-0.0282
RRIRMRPPRLPRPRPRPEFKPRP	0.335
RRIRLRPPRLPRPRPRPHHEPRP	0.0418
RRIRFRPPRLPRPRPRPGVSPRP	0.323
RRIRRRPPRLPRPRPRPNSRPRP	-0.0456
RRIRSRPPRLPRPRPRPLEKPRP	-0.0565
RRIRLRPPRLPRPRPRPRDIPRP	-0.54
RRIRRRPPRLPRPRPRPMLHPRP	0.385
RRIRFRPPRLPRPRPRPCGHPRP	-0.129
RRIRARPPRLPRPRPRPVTPPRP	0.479
RRIRQRPPRLPRPRPRPKMNPRP	-0.328

Sequence	shrunken log2 fold change
RRIRTRPPRLPRPRPRPDCWPRP	0.0105
RRIRLRPPRLPRPRPRPKAGPRP	0.221
RRIRIRPPRLPRPRPRPPEVPRP	-0.173
RRIRHRPPRLPRPRPRPIFYPRP	-0.204
RRIRLRPPRLPRPRPRPHYYPRP	-0.438
RRIRGRPPRLPRPRPRPEGPPRP	-0.0198
RRIRRRPPRLPRPRPRPINRPRP	0.0995
RRIRHRPPRLPRPRPRPLGFPRP	0.114
RRIRDRPPRLPRPRPRPKKCPRP	0.0235
RRIRWRPPRLPRPRPRPDMAPRP	0.204
RRIRKRPPRLPRPRPRPLSSPRP	0.115
RRIRSRPPRLPRPRPRPYWHPRP	-0.783
RRIRERPPRLPRPRPRPRLHPRP	0.047
RRIRGRPPRLPRPRPRPWMIPRP	0.268
RRIRVRPPRLPRPRPRPYAMPRP	-0.11
RRIRERPPRLPRPRPRPSILPRP	-0.623
RRIRQRPPRLPRPRPRPFLCPRP	-0.336
RRIRHRPPRLPRPRPRPLPPPRP	0.196
RRIRWRPPRLPRPRPRPLSEPRP	0.104
RRIRYRPPRLPRPRPRPWVVPRP	-0.264
RRIRFRPPRLPRPRPRPFFMPRP	-0.153
RRIRSRPPRLPRPRPRPGQQPRP	0.0543
RRIRSRPPRLPRPRPRPPHGPRP	0.1
RRIRVRPPRLPRPRPRPHYDPRP	-0.379
RRIRTRPPRLPRPRPRPNKPPRP	-0.0031

Sequence	shrunken log2 fold change
RRIRDRPPRLPRPRPRPMIDPRP	0.141
RRIRKRPPRLPRPRPRPASVPRP	0.291
RRIRCRPPRLPRPRPRPGFIPRP	0.067
RRIRERPPRLPRPRPRPAKGPRP	-0.321
RRIRARPPRLPRPRPRPMWVPRP	-0.0205
RRIRIRPPRLPRPRPRPPVSPRP	-0.116
RRIRKRPPRLPRPRPRPLNWPRP	0.0951
RRIRKRPPRLPRPRPRPGMNPRP	-0.0284
RRIRLRPPRLPRPRPRPYNAPRP	-0.0942
RRIRERPPRLPRPRPRPQLNPRP	-0.423
RRIRIRPPRLPRPRPRPMDFPRP	0.00128
RRIRRRPPRLPRPRPRPTMDPRP	0.147
RRIRYRPPRLPRPRPRPDTTPRP	0.0425
RRIRYRPPRLPRPRPRPIYQPRP	-0.614
RRIRDRPPRLPRPRPRPVLWPRP	0.37
RRIRDRPPRLPRPRPRPAGFPRP	0.0112
RRIRDRPPRLPRPRPRPQDKPRP	-0.592
RRIRMRPPRLPRPRPRPTHVPRP	-0.00477
RRIRIRPPRLPRPRPRPYPFPRP	-0.38
RRIRQRPPRLPRPRPRPTPMPRP	2.6
RRIRKRPPRLPRPRPRPADWPRP	0.666
RRIRDRPPRLPRPRPRPSKFPRP	-0.105
RRIRYRPPRLPRPRPRPKATPRP	-0.00674
RRIRNRPPRLPRPRPRPFKAPRP	0.0407
RRIRMRPPRLPRPRPRPPWQPRP	0.763

Sequence	shrunken log2 fold change
RRIRWRPPRLPRPRPRPFDQPRP	-0.102
RRIRMRPPRLPRPRPRPFHCPRP	0.0959
RRIRWRPPRLPRPRPRPAKIPRP	0.132
RRIRPRPPRLPRPRPRPPQEPRP	0.727
RRIRGRPPRLPRPRPRPLWEPRP	1.51
RRIRCRPPRLPRPRPRPKTGPRP	-0.0569
RRIRLRPPRLPRPRPRPDTVPRP	-0.399
RRIRDRPPRLPRPRPRPQTRPRP	0.138
RRIRTRPPRLPRPRPRPFECPRP	-0.143
RRIRNRPPRLPRPRPRPHETPRP	-0.127
RRIRGRPPRLPRPRPRPTWQPRP	0.731
RRIRDRPPRLPRPRPRPGVDPRP	1.36
RRIRMRPPRLPRPRPRPTEIPRP	-0.0223
RRIRERPPRLPRPRPRPDWFPRP	-0.00866
RRIRRRPPRLPRPRPRPCMFPRP	-0.0745
RRIRCRPPRLPRPRPRPSWAPRP	0.18
RRIRCRPPRLPRPRPRPANQPRP	-0.137
RRIRLRPPRLPRPRPRPETVPRP	0.0594
RRIRVRPPRLPRPRPRPIRLPRP	-0.419
RRIRKRPPRLPRPRPRPIDQPRP	0.122
RRIRFRPPRLPRPRPRPDSQPRP	-0.271
RRIRCRPPRLPRPRPRPCFNPRP	0.713
RRIRARPPRLPRPRPRPIHKPRP	-0.0416
RRIRMRPPRLPRPRPRPYSQPRP	-0.0394
RRIRYRPPRLPRPRPRPGRQPRP	-0.031

Sequence	shrunken log2 fold change
RRIRHRPPRLPRPRPRPWFLPRP	-0.315
RRIRNRPPRLPRPRPRPLYHPRP	-0.941
RRIRRRPPRLPRPRPRPWVKPRP	0.0557
RRIRIRPPRLPRPRPRPMRVPRP	0.109
RRIRGRPPRLPRPRPRPFQTPRP	0.013
RRIRYRPPRLPRPRPRPYIHPRP	-1.31
RRIRLRPPRLPRPRPRPSYLPRP	-0.659
RRIRHRPPRLPRPRPRPYCKPRP	-1.02
RRIRKRPPRLPRPRPRPHMSPRP	0.0205
RRIRCRPPRLPRPRPRPEADPRP	0.819
RRIRKRPPRLPRPRPRPQFNPRP	-0.281
RRIRGRPPRLPRPRPRPFTLPRP	-0.109
RRIRIRPPRLPRPRPRPKACPRP	0.0544
RRIRCRPPRLPRPRPRPYMSPRP	-0.366
RRIRVRPPRLPRPRPRPACSPRP	-0.0142
RRIRKRPPRLPRPRPRPWMVPRP	0.0578
RRIRIRPPRLPRPRPRPLIEPRP	-0.475
RRIRDRPPRLPRPRPRPKGRPRP	0.218
RRIRMRPPRLPRPRPRPTTNPRP	0.403
RRIRLRPPRLPRPRPRPQLLPRP	-0.0176
RRIRWRPPRLPRPRPRPQPQPRP	0.417
RRIRHRPPRLPRPRPRPERFPRP	-0.0122
RRIRIRPPRLPRPRPRPENWPRP	-0.00191
RRIRLRPPRLPRPRPRPPPPPRP	1.55
RRIRNRPPRLPRPRPRPIIYPRP	-1.06
